From doi:10.1101/719815 (bioRxiv, 2019) come the findings set out here.

T1: 6His-Cdc24_(428-854) _(K801A) (yeast, UniProt P11433 428-854, K801A)
T1 sequence: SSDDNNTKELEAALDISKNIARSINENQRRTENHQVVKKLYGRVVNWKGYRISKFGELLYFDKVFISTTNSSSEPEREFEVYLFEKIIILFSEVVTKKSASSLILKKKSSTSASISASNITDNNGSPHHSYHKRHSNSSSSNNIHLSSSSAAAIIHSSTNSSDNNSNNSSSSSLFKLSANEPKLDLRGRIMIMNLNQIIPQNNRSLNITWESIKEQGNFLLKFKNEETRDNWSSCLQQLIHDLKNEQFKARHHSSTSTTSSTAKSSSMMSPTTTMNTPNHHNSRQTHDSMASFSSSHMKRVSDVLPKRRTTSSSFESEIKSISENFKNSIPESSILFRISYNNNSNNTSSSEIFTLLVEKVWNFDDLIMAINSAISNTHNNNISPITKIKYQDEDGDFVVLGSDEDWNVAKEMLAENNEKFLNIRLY

T2: Cdc24_(428-854) _(K525E) (yeast, UniProt P11433 428-854, K525E)
T2 sequence: T1 sequence with K98E, A374K

T3: Cdc24_(428-854) _(K525E) _(K801A) (yeast, UniProt P11433 428-854, K525E | K801A)
T3 sequence: T1 sequence with K98E

B1: 6His-Cdc24_(428-854) (domain or fragment)
chain: T1 sequence with A374K
B2: GST-Cdc11 (natural protein)
chain: MSGIIDASSALRKRKHLKRGITFTVMIVGQSGSGRSTFINTLCGQQVVDTSTTILLPTDTSTEIDLQLREETVELEDDEGVKIQLNIIDTPGFGDSLDNSPSFEIISDYIRHQYDEILLEESRVRRNPRFKDGRVHCCLYLINPTGHGLKEIDVEFIRQLGSLVNIIPVISKSDSLTRDELKLNKKLIMEDIDRWNLPIYNFPFDEDEISDEDYETNMYLRTLLPFAIIGSNEVYEMGGDVGTIRGRKYPWGILDVEDSSISDFVILRNALLISHLHDLKNYTHEILYERYRTEALSGESVAAESIRPNLTKLNGSSSSSTTTRRNTNPFKQSNNINNDVLNPASDMHGQSTGENNETYMTREEQIRLEEERLKAFEERVQQELLLKRQELLQREKELREIEARLEKEAKIKQEE
B3: 6His-Cdc11-SNAP (natural protein)
chain: B2 chain
modifications: biotinylated with BG-Biotin (on the SNAP tag)

In test [1] the target is SNAP-tagged septin rods (yeast, UniProt P32458;P32468;P32457;P25342). Description: SPR. In general terms: Surface plasmon resonance follows binding to a sensor surface in real time, without labels.
Test [2] deals with B1. The test can be described thus: pull-down.
For test [3], the target named is B1. The test can be described thus: SPR.
In test [4] the target is T1, 6His-Cdc24_(428-854) _(K801A). The test can be described thus: SPR.
The target of test [5] is T2, Cdc24_(428-854) _(K525E). The test can be described thus: SPR.
Test [6] addresses T3, Cdc24_(428-854) _(K525E) _(K801A). The test can be described thus: SPR.

Where a chain is given by its changes, count along the chain named.

Sequence of SNAP-tagged septin rods (P32468 whole entry, chain 2 of 3): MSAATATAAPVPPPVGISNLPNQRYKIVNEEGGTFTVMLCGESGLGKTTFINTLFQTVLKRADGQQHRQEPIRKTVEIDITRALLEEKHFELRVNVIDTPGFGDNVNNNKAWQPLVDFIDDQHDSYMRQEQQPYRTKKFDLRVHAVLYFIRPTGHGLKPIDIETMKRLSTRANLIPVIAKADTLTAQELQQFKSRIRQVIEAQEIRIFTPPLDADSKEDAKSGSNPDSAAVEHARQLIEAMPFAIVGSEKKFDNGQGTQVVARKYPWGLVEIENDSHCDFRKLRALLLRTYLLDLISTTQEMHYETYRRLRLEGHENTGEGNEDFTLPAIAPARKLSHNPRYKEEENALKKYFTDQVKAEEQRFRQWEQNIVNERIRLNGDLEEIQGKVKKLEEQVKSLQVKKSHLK
Sequence of SNAP-tagged septin rods (P32457 whole entry, chain 3 of 3): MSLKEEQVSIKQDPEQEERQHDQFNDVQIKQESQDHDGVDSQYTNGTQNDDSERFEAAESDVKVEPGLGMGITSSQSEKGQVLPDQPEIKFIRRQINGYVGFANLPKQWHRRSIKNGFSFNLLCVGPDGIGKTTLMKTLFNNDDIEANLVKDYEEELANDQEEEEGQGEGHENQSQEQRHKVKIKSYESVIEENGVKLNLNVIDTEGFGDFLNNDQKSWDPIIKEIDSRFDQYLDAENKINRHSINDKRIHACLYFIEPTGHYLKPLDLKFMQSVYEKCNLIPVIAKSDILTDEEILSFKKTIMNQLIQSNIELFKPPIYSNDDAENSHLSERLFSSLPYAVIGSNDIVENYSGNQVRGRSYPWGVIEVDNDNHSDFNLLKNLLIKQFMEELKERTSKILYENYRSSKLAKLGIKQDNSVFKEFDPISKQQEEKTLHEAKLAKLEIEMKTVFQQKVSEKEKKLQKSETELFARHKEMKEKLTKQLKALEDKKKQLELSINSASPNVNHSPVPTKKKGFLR
Sequence of SNAP-tagged septin rods (P25342 whole entry, chain 4 of 3): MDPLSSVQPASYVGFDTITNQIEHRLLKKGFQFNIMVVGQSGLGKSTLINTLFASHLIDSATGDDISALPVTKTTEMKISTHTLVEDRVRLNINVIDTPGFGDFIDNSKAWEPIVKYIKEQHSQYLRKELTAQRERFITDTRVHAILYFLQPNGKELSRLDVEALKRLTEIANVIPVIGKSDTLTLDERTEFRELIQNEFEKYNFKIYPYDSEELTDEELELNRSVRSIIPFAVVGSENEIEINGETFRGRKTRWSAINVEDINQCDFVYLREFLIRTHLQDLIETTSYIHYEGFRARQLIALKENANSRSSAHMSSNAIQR

Take B1: the Kd in test [1] amounted to 0.351 µM. In other words, the sub-micromolar range.

For the molecule B2, the binding result in test [2] is “binds”.

B3: the equilibrium dissociation constant (Kd) in test [3] stood at 0.257 µM. Also, the binding result in test [4], in test [5] and in test [6] was “binds” throughout.

By Kd is commonly meant the constant that tells how readily two partners part at equilibrium. A high value points to a looser complex.
